Experimental data from US20230406926A1 (Kyowa Kirin, published 2023).
Values belong to the binder of their own block, whether it stands above or below them.

Key:
[1] = target: T1, His-tag-fused human CD3D&E protein (Sino Biological, Inc.) (human, UniProt P07766 23-126; P04234 22-105); test: SPR (Biacore), His-tagged human CD3D&E captured on anti-tetra His antibody, antibody as analyte, single cycle kinetics
T1 construct: also called soluble CD3; human CD3 protein
Method: The binding affinity of these antibodies for CD3 was measured by Biacore (GE Healthcare). Specifically, an anti-tetra His mouse antibody (QIAGEN NV.) was immobilized on a CM5 sensor chip at approximately 8000 RU using an amine coupling kit (GE Healthcare). As the coupling buffer, 10 mM sodium acetate (pH 4.5) was used. As the ligand, a His-tag-fused human CD3D&E protein (Sino Biological, Inc.) dissolved in HBS-EP(+) buffer at 5 μg/mL was captured at 5 μL/min for 120 seconds.
Subsequently, bispecific antibody solutions obtained by 2-fold serial dilution for 5 times from 10 μg/mL was added as the analyte at a flow rate of 30 μL/min, and binding reaction between each antibody and the analyte was measured for 2 minutes, and a dissociation reaction was measured for 5 minutes. The measurement was performed by single cycle kinetics method. The obtained sensorgram was analyzed using Bia Evaluation Software (GE Healthcare), and the kinetic constant of each antibody was calculated.

[2] = target: T2, HER2 (human, UniProt P04626 23-1255); test: flow cytometry competition by the method of Example 3 (SK-BR-3 cells): inhibition of the binding of fluorescently labeled Trastuzumab
T2 construct: whole, on cells; also called HER2 on the surface of the cell membrane
Method: Subsequently, binding inhibition analysis by flow cytometry was performed using an HER2-positive human breast cancer cell line SK-BR-3 (ATCC HTB-30).
As a negative control, human serum-derived IgG1/kappa (Millipore, Inc.) at the same concentration was added. After washing, mean fluorescent intensity (MFI) of the binding of SK-BR-3 cells was measured with a flow cytometer Cytomics FC 500 MPL (Beckman Coulter, Inc.).

[3] = target: T3, CD3 on T cells (UniProt P07766 23-207, limits assumed); test: flow cytometry on T cells by the method of Example 3, fluorescently labeled secondary antibody
T3 construct: whole, on cells; also called CD3 on the surface of the membrane
Method: Each of the various antibodies was added to T cells at a final concentration of 10 g/mL and allowed to react at 4° C. for 1 hour. After washing, Goat anti-Human IgG F(ab)₂-FITC (Acris Antibodies GmbH) diluted to 30 μg/mL was added thereto and allowed to react at 4° C. for 1 hour.
As a positive control, 30 μg/mL of an anti-CD3 antibody OKT-3 (abcam. plc) was used as the primary antibody, and Goat anti-mouse IgG F(ab)₂-FITC (Dako, Inc.) was used as the secondary antibody. After washing, the MFI of the antibody bound to T cells was measured with a flow cytometer Cytomics FC 500 MPL (Beckman Coulter, Inc.).

[4] = target: cynomolgus monkey CD3 on HSC-F cells (cynomolgus monkey, UniProt Q95LI5 22-198); test: flow cytometry, hybridoma supernatant on HSC-F cells, Alexa 647 anti-human IgG
Chain of cynomolgus monkey CD3 on HSC-F cells (Q95LI5 22-198): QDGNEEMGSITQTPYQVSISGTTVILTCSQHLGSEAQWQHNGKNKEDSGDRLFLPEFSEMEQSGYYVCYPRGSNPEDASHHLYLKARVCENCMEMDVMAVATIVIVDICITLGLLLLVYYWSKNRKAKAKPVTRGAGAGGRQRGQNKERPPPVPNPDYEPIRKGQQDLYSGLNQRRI
Method: The screening of anti-CD3 antibody-producing hybridomas was performed by flow cytometry. Cells cultured in a flask for floating cell culture were collected, washed twice with PBS, and then suspended in a staining buffer (PBS containing 0.02% EDTA, 0.05% NaN₃, and 1% BSA), and prepared so that the viable cell count was 2.0 to 5.0×10⁵ cells/50 μL. […] As negative control cells, unstained KHYG-1 cells (JCRB cell bank JCRB156) were used.
These three types of cells were mixed in equal amounts, and the resultant was dispensed into a 96-well plate at 50 μL/well, and incubated on ice for 30 minutes, and then, an equal amount of the undiluted hybridoma supernatant solution was added thereto and mixed therewith, and placed at 4° C. for 30 minutes. […] After performing centrifugation of the cells and washing with a staining buffer twice, the cells were suspended in a staining buffer, and the fluorescent intensity was measured with a flow cytometer CyAn ADP (Beckman Coulter, Inc.).

T1 sequence (P07766 23-126, chain 1 of 2): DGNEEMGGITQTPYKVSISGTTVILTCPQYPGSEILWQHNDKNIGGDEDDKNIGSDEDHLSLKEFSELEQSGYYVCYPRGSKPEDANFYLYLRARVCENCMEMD
T1 sequence (P04234 22-105, chain 2 of 2): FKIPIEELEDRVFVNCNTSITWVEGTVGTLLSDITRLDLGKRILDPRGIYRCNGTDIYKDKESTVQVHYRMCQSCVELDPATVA
T3 sequence (P07766 23-207 limits assumed): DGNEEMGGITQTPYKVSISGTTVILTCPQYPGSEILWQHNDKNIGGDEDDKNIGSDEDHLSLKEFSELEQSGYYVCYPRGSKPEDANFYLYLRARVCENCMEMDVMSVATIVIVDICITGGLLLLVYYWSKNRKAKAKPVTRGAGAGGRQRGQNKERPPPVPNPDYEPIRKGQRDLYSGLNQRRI

B1: 4D5mut_scSP34_IgG1 (DF) (bispecific antibody)
chain 1: EVQLVESGGGLVQPKGSLKLSCAASGFTFNTYAMNWVRQAPGKGLEWVARIRSKYNNYATYYADSVKDRFTISRDDSQSILYLQMNNLKTEDTAMYYCVRHGNFGNSYVSWFAYWGQGTLVTVSSGGGGSGGGGSGGGGSQAVVTQESALTTSPGETVTLTCRSSTGAVTTSNYANWVQEKPDHLFTGLIGGTNKRAPGVPARFSGSLIGDKAALTITGAQTEDEAIYFCALWYSNLWVFGGGTKLTVLGTKYGPPCPPCPAPEFEGGPSVFLFPPKPKDTLMISRTPEVTCVVVDVSQEDPEVQFNWYVDGVEVHNAKTKPREEQFNSTYRVVSVLTVLHQDWLNGKEYKCKVSNKGLPSSIEKTISKAKGQPREPQVCTLPPSQEEMTKNQVSLSCAVKGFYPSDIAVEWESNGQPENNYKTTPPVLDSDGSFFLVSKLTVDKSRWQEGNVFSCSVMHEALHNRFTQKSLSLSLGK
chain 2: not shown
chain 3: not shown
- Kd [1]: 12.6 nM

B3: DNP2_IgG1 (DF) (antibody, V domains shown)
VH: QVQLVQSGAEVKKPGASVKVSCKASGYTFTSYGISWVRQAPGQGLEWMGWISAYNGNTNYAQKLQGRVTMTTDTSTSTAYMELRSLRSDDTAVYYCARWDSSSWSFDYWGQGTLVTVSS
VL: DIQMTQSPSSLSASVGDRVTITCRASQGISSWLAWYQQKPEKAPKSLIYAASSLQSGVPSRFSGSGSGTDFTLTISSLQPEDFATYYCQQYNSYPYTFGQGTKLEIKR
notes: also called IgG1-type anti-2,4-dinitrophenyl (DNP) antibody, clone DNP2
- binding result [2]: no binding
- binding result [3]: no binding (tested: 10 nM)

Continued, values first:

- Kd [1]: 108 nM
B2: 4D5mut_scSP34(H05′)_IgG1 (DF) (bispecific antibody)
chain 1: EVQLVESGGGLVQPKGSLKLSCAASGFTFNTYAMNWVRQAPGKGLEWVARIRSKYNNYATYYADSVKDRFTISRDDSQSILYLQMNNLKTEDTAMYYCVRHGNFGNSDVSWFAYWGQGTLVTVSSGGGGSGGGGSGGGGSQAVVTQESALTTSPGETVTLTCRSSTGAVTTSNYANWVQEKPDHLFTGLIGGTNKRAPGVPARFSGSLIGDKAALTITGAQTEDEAIYFCALWYENLWVFGGGTKLTVLGTKYGPPCPPCPAPEFEGGPSVFLFPPKPKDTLMISRTPEVTCVVVDVSQEDPEVQFNWYVDGVEVHNAKTKPREEQFNSTYRVVSVLTVLHQDWLNGKEYKCKVSNKGLPSSIEKTISKAKGQPREPQVCTLPPSQEEMTKNQVSLSCAVKGFYPSDIAVEWESNGQPENNYKTTPPVLDSDGSFFLVSKLTVDKSRWQEGNVFSCSVMHEALHNRFTQKSLSLSLGK
chain 2: not shown
chain 3: not shown

- binding result [4]: binds
B4: anti-CD3 monoclonal antibody KM14 (antibody, V domains shown)
VH: QVQLVESGGGVVQPGRSLRLSCEASGFTFSSHGMHWVRQAPGKGLEWVASIWYDGSKKYYADSVKGRFTISRDNSKNTLDLQMNSLRAEDTAVYYCAKTLYYYGSERAHGLDVWGQGTTVTVSS
VL: AIQLTQSPSSLSASVGDRVTITCRASQGISSALAWYQQKPGKAPNLLIYDASSLESGVPSRFSGSGSGTDFTLTISSLQPEDFATYYCQQFNSYPRTFGQGTKVEIK
notes: also called hybridoma clone KM14
